Experimental data as given in patent US20230406961A1 (DEUTSCHES KREBSFORSCHUNGSZENTRUM STIFTUNG DES FFENTLICHEN …, published 2023).

target: T1, CD28 expressed on human CD4+ and CD8+ T cells (human, UniProt P10747 19-220); experiment: flow cytometry after incubation of PBMC with the constructs
T1 construct: whole, on cells; also called T-cell-specific surface glycoprotein CD28
Experimental: Binding of the variants to normal human T cells was determined after incubation of PBMC with the respective constructs and subsequent analysis by flow cytometry

Row | binding result | Binder
1 | binds | bispecific endoglinxCD28 antibody in the IgGsc format, BiCo variant Lc-L (bispecific antibody, Humanized endoglin IgG, FcKO heavy chain, with the CD28 scFv (9.3-8, Vh-Vl) fused to the C-terminus of the kappa light chain without the long linker) heavy: QVQLVQSGAEVKKPGASVKVSCKASGYTFTSYWMHWVRQAPGQGLEWIGNIYPGSGSTFYDEKFKGRATLTVDTSISTAYMELSRLRSDDTAVYYCTRRNYVTGFDYWGQGTTVTVSSASTKGPSVFPLAPSSKSTSGGTAALGCLVKDYFPEPVTVSWNSGALTSGVHTFPAVLQSSGLYSLSSVVTVPSSSLGTQTYICNVNHKPSNTKVDKKVEPKSCDKTHTCPPCPAPPVAGPSVFLFPPKPKDTLMISRTPEVTCVVVGVSHEDPEVKFNWYVDGVEVHNAKTKPREEQYNSTYRVVSVLTVLHQDWLNGKEYKCKVSNKQLPSPIEKTISKAKGQPREPQVYTLPPSRDELTKNQVSLTCLVKGFYPSDIAVEWESNGQPENNYKTTPPVLDSDGSFFLYSKLTVDKSRWQQGNVFSCSVMHEALHNHYTQKSLSLSPGK light: DIQLTQSPSFLSASVGDRVTITCKSSQSVLYSSNQKNYLAWYQQKPGKAPKLLIYWASTRESGVPSRFSGSGSGTEFTLTISSLQPEDFATYYCHQYLSSYTFGQGTKLEIKRTVAAPSVFIFPPSDEQLKSGTASVVCLLNNFYPREAKVQWKVDNALQSGNSQESVTEQDSKDSTYSLSSTLTLSKADYEKHKVYACEVTHQGLSSPVTKSFNRGECASQVQLVESGGGVVQPGRSLRLSCAASGFSLSDYGVHWVRQAPGKGLEWLGVIWAGGGTNYNSALMSRKTISKDNSKNTVYLQMNSLRAEDTAVYYCARDKGYSYYYSMDYWGQGTTVTVSSGGGGSGGGGSGGGGSDIQMTQSPSTLSASVGDRVTIICRASESVEYYVTSLMQWYQQKPGKAPKLLIFAASNVESGVPSRFSGSGSGTEFTLTISSLQPDDFATYYCQQSRKVPYTFGQGTKLEIKR
2 | binds | bispecific endoglinxCD28 antibody in the IgGsc format, BiCo variant Lc+L (bispecific antibody, Humanized endoglin IgG, FcKO heavy chain, with the CD28 scFv (9.3-8, Vh-Vl) fused to the C-terminus of the kappa light chain through a (GGGGS)3 linker; also called BiCo-1; Bico1) heavy: QVQLVQSGAEVKKPGASVKVSCKASGYTFTSYWMHWVRQAPGQGLEWIGNIYPGSGSTFYDEKFKGRATLTVDTSISTAYMELSRLRSDDTAVYYCTRRNYVTGFDYWGQGTTVTVSSASTKGPSVFPLAPSSKSTSGGTAALGCLVKDYFPEPVTVSWNSGALTSGVHTFPAVLQSSGLYSLSSVVTVPSSSLGTQTYICNVNHKPSNTKVDKKVEPKSCDKTHTCPPCPAPPVAGPSVFLFPPKPKDTLMISRTPEVTCVVVGVSHEDPEVKFNWYVDGVEVHNAKTKPREEQYNSTYRVVSVLTVLHQDWLNGKEYKCKVSNKQLPSPIEKTISKAKGQPREPQVYTLPPSRDELTKNQVSLTCLVKGFYPSDIAVEWESNGQPENNYKTTPPVLDSDGSFFLYSKLTVDKSRWQQGNVFSCSVMHEALHNHYTQKSLSLSPGK light: DIQLTQSPSFLSASVGDRVTITCKSSQSVLYSSNQKNYLAWYQQKPGKAPKLLIYWASTRESGVPSRFSGSGSGTEFTLTISSLQPEDFATYYCHQYLSSYTFGQGTKLEIKRTVAAPSVFIFPPSDEQLKSGTASVVCLLNNFYPREAKVQWKVDNALQSGNSQESVTEQDSKDSTYSLSSTLTLSKADYEKHKVYACEVTHQGLSSPVTKSFNRGECASGGGGSGGGGSGGGGSQVQLVESGGGVVQPGRSLRLSCAASGFSLSDYGVHWVRQAPGKGLEWLGVIWAGGGTNYNSALMSRKTISKDNSKNTVYLQMNSLRAEDTAVYYCARDKGYSYYYSMDYWGQGTTVTVSSGGGGSGGGGSGGGGSDIQMTQSPSTLSASVGDRVTIICRASESVEYYVTSLMQWYQQKPGKAPKLLIFAASNVESGVPSRFSGSGSGTEFTLTISSLQPDDFATYYCQQSRKVPYTFGQGTKLEIKR
3 | binds | bispecific endoglinxCD28 antibody in the IgGsc format, BiCo variant Hc-L (bispecific antibody, Humanized endoglin IgG (K-ro22-2 / K-ro22-6), FcKO, with the CD28 scFv (9.3-8, Vh-Vl) fused to the C-terminus of the heavy chain without the long linker) heavy: QVQLVQSGAEVKKPGASVKVSCKASGYTFTSYWMHWVRQAPGQGLEWIGNIYPGSGSTFYDEKFKGRATLTVDTSISTAYMELSRLRSDDTAVYYCTRRNYVTGFDYWGQGTTVTVSSASTKGPSVFPLAPSSKSTSGGTAALGCLVKDYFPEPVTVSWNSGALTSGVHTFPAVLQSSGLYSLSSVVTVPSSSLGTQTYICNVNHKPSNTKVDKKVEPKSCDKTHTCPPCPAPPVAGPSVFLFPPKPKDTLMISRTPEVTCVVVGVSHEDPEVKFNWYVDGVEVHNAKTKPREEQYNSTYRVVSVLTVLHQDWLNGKEYKCKVSNKQLPSPIEKTISKAKGQPREPQVYTLPPSRDELTKNQVSLTCLVKGFYPSDIAVEWESNGQPENNYKTTPPVLDSDGSFFLYSKLTVDKSRWQQGNVFSCSVMHEALHNHYTQKSLSLSPGKASQVQLVESGGGVVQPGRSLRLSCAASGFSLSDYGVHWVRQAPGKGLEWLGVIWAGGGTNYNSALMSRKTISKDNSKNTVYLQMNSLRAEDTAVYYCARDKGYSYYYSMDYWGQGTTVTVSSGGGGSGGGGSGGGGSDIQMTQSPSTLSASVGDRVTIICRASESVEYYVTSLMQWYQQKPGKAPKLLIFAASNVESGVPSRFSGSGSGTEFTLTISSLQPDDFATYYCQQSRKVPYTFGQGTKLEIKR light: DIQLTQSPSFLSASVGDRVTITCKSSQSVLYSSNQKNYLAWYQQKPGKAPKLLIYWASTRESGVPSRFSGSGSGTEFTLTISSLQPEDFATYYCHQYLSSYTFGQGTKLEIKRTVAAPSVFIFPPSDEQLKSGTASVVCLLNNFYPREAKVQWKVDNALQSGNSQESVTEQDSKDSTYSLSSTLTLSKADYEKHKVYACEVTHQGLSSPVTKSFNRGEC
